Assay results: paper doi:10.1101/755678

Experiments:
[1] = target: RagA (TonB dependent transporter, PG_0185) of P. gingivalis W83 (Porphyromonas gingivalis W83); experiment: crystal structure
[2] = target: RagA (TonB dependent transporter, PG_0185) of P. gingivalis W83 (Porphyromonas gingivalis W83); experiment: cryo-EM structure
[3] = target: RagAB complex from wild-type P. gingivalis W83, 8×His-tag on the C terminus of RagB (Porphyromonas gingivalis W83); experiment: MST
[4] = target: RagB from ATCC 33277, mature part, C-terminal His6-tag, expressed in E. coli (Porphyromonas gingivalis ATCC 33277); experiment: MST
[5] = target: RagB from W83, mature part, C-terminal His6-tag, expressed in E. coli (Porphyromonas gingivalis W83); experiment: MST

## RagA (TonB dependent transporter, PG_0185) of P. gingivalis W83 (natural protein)
[1]
  stoichiometry N: 2
[2]
  stoichiometry N: 2

## KATAEALKKALEEAGAEVELK [P21 peptide (21 residues from the C-terminus of ribosomal protein L7)]
[3]
  Kd: 0.4 µM
[4]
  Kd: 700 µM
[5]
  Kd: 2000 µM

## NIFKKNVGFKK [P4 peptide (unlabelled)]
[4]
  Kd: 70 µM
[5]
  Kd: 2000 µM
